T1: Human B7H4 (ECD) Fc TM 6H (human, UniProt Q7Z7D3)
T1 construct: ECD, native leader
T1 sequence (Q7Z7D3 whole entry, looked up): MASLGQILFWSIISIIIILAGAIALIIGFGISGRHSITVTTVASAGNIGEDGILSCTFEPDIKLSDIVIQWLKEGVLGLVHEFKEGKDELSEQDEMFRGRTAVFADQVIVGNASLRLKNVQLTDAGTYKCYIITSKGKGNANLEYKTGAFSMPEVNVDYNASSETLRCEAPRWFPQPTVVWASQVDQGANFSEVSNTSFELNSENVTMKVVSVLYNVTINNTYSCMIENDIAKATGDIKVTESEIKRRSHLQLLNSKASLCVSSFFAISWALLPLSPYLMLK

T2: cynomolgus monkey B7-H4 on cells (cynomolgus monkey, UniProt A0A2K5U6P5 25-282)
T2 sequence: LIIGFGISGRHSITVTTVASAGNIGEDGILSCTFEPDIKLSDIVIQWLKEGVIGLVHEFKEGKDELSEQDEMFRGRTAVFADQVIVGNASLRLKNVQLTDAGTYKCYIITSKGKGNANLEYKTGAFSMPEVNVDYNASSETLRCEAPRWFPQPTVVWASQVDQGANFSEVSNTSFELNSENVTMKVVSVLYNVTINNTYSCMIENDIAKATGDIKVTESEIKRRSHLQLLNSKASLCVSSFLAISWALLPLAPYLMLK

B1: E02-maia (ZY0EQD_E02, wildtype, Maia format human IgG1) (antibody, V domains shown)
VH: QVQLQQWGAGLLKPSETLSLTCAVYGGSFSGYYWNWIRQPPGKGLEWIGEINHSGSTSYNPSLKSRVTISVDTSKNQFSLKLSSVTAADTAVYYCARVLYNWNVDSWGQGTLVTVSS
VL: DIQMTQSPSSLSASVGDRVTITCRASQDIRNDVGWYQQKPGKAPKRLIYAASRLQSGVPSRFSGSGSGTEFTLTISSLQPEDFATYYCLQHNSYPRTFGQGTKVEIKR
notes: built here from VH 33 and the Maia constant region 41
B2: E02-GL-SG3249 (antibody, human IgG1, kappa)
heavy: QVQLQQWGAGLLKPSETLSLACTVYGGSFSGYYWNWIRQPPGKGLEWIGEINHSGSTSYNPSLKSRVTISVDTSKNQFSLKLSSVTAADTAVYYCARVLYNWNVDSWGQGTLVTVSSASTKGPSVFPLAPSSKSTSGGTAALGCLVKDYFPEPVTVSWNSGALTSGVHTFPAVLQSSGLYSLSSVVTVPSSSLGTQTYICNVNHKPSNTKVDKRVEPKSCDKTHTCPPCPAPELLGGPSCVFLFPPKPKDTLMISRTPEVTCVVVDVSHEDPEVKFNWYVDGVEVHNAKTKPREEQYNSTYRVVSVLTVLHQDWLNGKEYKCKVSNKALPAPIEKTISKAKGQPREPQVYTLPPSREEMTKNQVSLTCLVKGFYPSDIAVEWESNGQPENNYKTTPPVLDSDGSFFLYSKLTVDKSRWQQGNVFSCSVMHEALHNHYTQKSLSLSPGK
light: DIQMTQSPSSLSASVGDRVTITCRASQDIRNDVGWYQQKPGKAPKRLIYAASRLQSGVPSRFSGSGSGTEFTLTISSLQPEDFATYYCLQHNSYPRTFGQGTKVEIKRTVAAPSVFIFPPSDEQLKSGTASVVCLLNNFYPREAKVQWKVDNALQSGNSQESVTEQDSKDSTYSLSSTLTLSKADYEKHKVYACEVTHQGLSSPVTKSFNRGEC
modifications: pyrrolobenzodiazepine SG3249 conjugated at the inserted cysteine of the Maia backbone

Tests used:
[1] = target: T1, Human B7H4 (ECD) Fc TM 6H; experiment: ELISA, absorbance 450 nm, Human B7H4 (ECD) Fc TM 6H; x axis printed as antigen concentration (nM)
[2] = target: T2, cynomolgus monkey B7-H4 on cells; experiment: cell-based or functional assay

Row | Binder | EC50 (read off the curve) [1] | IC50, cytotoxicity on cynomolgus B7-H4 transfected cells [2]
1 | B1 | ~10 nM | –
2 | B2 | – | 0.672 ng/mL

From patent US20240239894A1 (AstraZeneca / MedImmune, published 2024)
